We go through two molecules from paper PMC3034641 (Cancer research, 2010).

The Kd is a measure of binding affinity in units of concentration.

The chains are these.
B1: purified recombinant human CCL21 (Chemicon) (ligand, UniProt O00585 24-134, looked up)
chain: SDGGAQDCCLKYSQRKIPAKVVRSYRKQEPSLGCSIPAILFLPRKRSQAELCADPKELWVQQLMQHLDKTPSPQKPAQGCRKDRGASKTGKKGKGSKGCKRTERSQTPKGP
B2: Chemotrap-1 (THAP1(140-213)-Fc), purified from CHO cells (Fc fusion, human, UniProt Q9NVV9 140-213, looked up)
chain: EDTMHQRKRIHQLEQQVEKLRKKLKTAQQRCRRQERQLEKLKEVVHFQKEKDDVSERGYVILPNDYFEIVEVPA

Assay [1] addresses T1, THAP1(1-213)-Fc fusion protein (human, UniProt Q9NVV9 1-213).
T1 sequence (looked up): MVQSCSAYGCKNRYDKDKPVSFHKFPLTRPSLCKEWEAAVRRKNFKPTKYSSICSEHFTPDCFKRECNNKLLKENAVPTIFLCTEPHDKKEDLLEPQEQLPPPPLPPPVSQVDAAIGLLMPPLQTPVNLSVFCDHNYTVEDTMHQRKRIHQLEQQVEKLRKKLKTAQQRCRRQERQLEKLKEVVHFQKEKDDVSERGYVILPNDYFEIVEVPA
Nature of the assay: SPR.

Assay [2] has as its target B1. Nature of the assay: SPR.

The molecule B1 displayed a Kd in assay [1] of 87 nM.

As for B2, the Kd in assay [2] was determined as 102 nM.
